{
  "source": "patent US10364299B2",
  "about": "“Derivatives obtained from hyaluronic acid and carnosine” (CONSIGLIO NAZIONALE DELLE RICERCHE, priority 2014, dated 2019)",
  "key": {"[1]": {"test": "Intrinsic viscosity by size exclusion chromatography with triple detector", "assay_type": "physicochemical", "details": "for Intrinsic viscosity: 40°C, 0.1M sodium nitrate", "experimental": "Experiments aimed at determining the molecular weight distribution (MWD) and the intrinsic viscosity of the conjugated HyCar were effected on a CPG/SEC chromatographic system equipped with a Malvern triple detector (ViscoteckTDmax).\nThe parameters indicated above were determined by means of size exclusion chromatography carried out on the chromatographic system GPCmax VE 2001 (Malvern), equipped with two TSK-GEL GMPWXL columns (7.8 mm ID×30 cm; Viscotek-TOSOH BIOSCIENCE) installed in series. The system is coupled with a system of three detectors positioned in series and comprising: a refraction index detector, a light scattering detector and a four-capillary differential viscometer. The sample was eluted using an aqueous solution 0.1M of sodium nitrate containing 0.5 g/L of sodium azide with a flow of 0.6 ml/min, at 40° C. The software Omnisec 4.1 was used for the acquisition and data analysis.\nThe physical parameters relating to the intrinsic viscosity and molecular weight (MW), determined at different concentrations for the conjugate of hyaluronic acid-carnosine, compared with those of the corresponding hyaluronic acid, determined by means of size exclusion chromatography coupled with a triple detector, are indicated in Table 1 below."}, "[2]": {"molecular_target": "T1, human serum carnosinase (CN1) (Homo sapiens, UniProt Q96KN2)", "T1 construct": "made in house; host or cells: HeLa cells, stably transfected; enzyme purified from the culture medium", "T1 sequence (Q96KN2 26-507)": "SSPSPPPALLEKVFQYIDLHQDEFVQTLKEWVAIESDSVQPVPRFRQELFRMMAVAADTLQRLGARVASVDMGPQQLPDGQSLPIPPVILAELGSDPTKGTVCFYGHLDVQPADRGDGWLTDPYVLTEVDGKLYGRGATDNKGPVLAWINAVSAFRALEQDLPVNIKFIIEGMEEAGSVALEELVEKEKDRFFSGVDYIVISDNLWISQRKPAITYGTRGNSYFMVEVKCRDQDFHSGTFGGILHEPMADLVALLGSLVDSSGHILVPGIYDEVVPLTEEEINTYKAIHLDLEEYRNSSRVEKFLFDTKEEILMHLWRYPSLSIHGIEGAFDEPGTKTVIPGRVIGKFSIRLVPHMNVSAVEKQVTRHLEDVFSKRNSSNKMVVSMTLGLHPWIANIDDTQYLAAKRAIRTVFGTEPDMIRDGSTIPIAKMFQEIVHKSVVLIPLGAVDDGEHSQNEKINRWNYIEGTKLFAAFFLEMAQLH", "test": "Enzymatic hydrolysis by human serum carnosinase", "assay_type": "in vitro ADME", "details": "900 μM, 37°C, 50 mM Tris/HCl pH 8.0, 5 hours; versus non-conjugated carnosine", "experimental": "The time-dependent stability of HyCar with respect to human serum carnosinase, compared with the stability of the mixture of carnosine+HA or carnosine alone, was determined by incubating each of these substances (900 μM) at 37° C. in 50 mM Tris/HCl (pH 8.0) with the above-mentioned enzyme (CN1), purified by the culture medium of Hela cells stably transfected as previously indicated (Antioxid. Redox Signal., 11, 2759, 2009). A parallel experiment was effected as negative control, in which hyaluronic acid alone was subjected to enzymatic action. The course of the reaction was followed by collecting, at various time intervals, 50 μl aliquots of the mixture for a total of 5 hours, and, after deproteinization with trichloroacetic acid (TCA), fluorometrically determining the quantity of histidine in the final solution, after reaction with ortho-phthalic aldehyde (OPA; Fluka), according to a procedure already described (Clin. Chim. Acta, 1982, 123, 221).\nMore specifically, FIG. 5 indicates the stability with time of HyCar (●), subjected to the action of human serum carnosinase, compared with the stability of carnosine (▪), carnosine+HA (▴), and HA alone (♦)(the latter used as negative control of the experiment). The histidine released was spectrophotometrically determined as OPA-derivative."}},
  "data": [
    {"substance": "conjugated 3-N-hyaluronyl of 2-(3-aminopropanamide)-3-(1H-imidazol-4-yl)propanoic acid [HyCar (7%)190 kD]", "values": [
      {"measurement": "intrinsic viscosity compared with non-conjugated hyaluronic acid of the same MW (in words)", "setting": "[1]", "value": "only slightly lower"},
      {"measurement": "Intrinsic viscosity", "setting": "[1]; theoretical conc. 0.1 mg/ml", "value": 4.9, "unit": "dL/g"},
      {"measurement": "Intrinsic viscosity", "setting": "[1]; theoretical conc. 0.25 mg/ml", "value": 4.8, "unit": "dL/g"},
      {"measurement": "Intrinsic viscosity", "setting": "[1]; theoretical conc. 0.5 mg/ml", "value": 4.8, "unit": "dL/g"},
      {"measurement": "resistance to the action of human serum carnosinase", "setting": "[2]", "value": "greater resistance"}
    ]}
  ]
}
